From patent publication US20080124340A1

T1: soluble human erythropoietin receptor protein (huEpoR) (human) (UniProt P19235)
T1 sequence (looked up): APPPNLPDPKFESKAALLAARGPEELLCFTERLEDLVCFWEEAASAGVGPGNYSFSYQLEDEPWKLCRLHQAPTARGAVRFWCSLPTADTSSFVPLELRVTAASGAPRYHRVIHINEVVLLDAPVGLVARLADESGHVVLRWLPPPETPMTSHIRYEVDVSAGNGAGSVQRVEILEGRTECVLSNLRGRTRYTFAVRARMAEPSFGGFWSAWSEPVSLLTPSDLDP

T2: human erythropoietin receptor (huEpoR), cell surface expressed (human) (UniProt P19235)
T2 sequence (looked up): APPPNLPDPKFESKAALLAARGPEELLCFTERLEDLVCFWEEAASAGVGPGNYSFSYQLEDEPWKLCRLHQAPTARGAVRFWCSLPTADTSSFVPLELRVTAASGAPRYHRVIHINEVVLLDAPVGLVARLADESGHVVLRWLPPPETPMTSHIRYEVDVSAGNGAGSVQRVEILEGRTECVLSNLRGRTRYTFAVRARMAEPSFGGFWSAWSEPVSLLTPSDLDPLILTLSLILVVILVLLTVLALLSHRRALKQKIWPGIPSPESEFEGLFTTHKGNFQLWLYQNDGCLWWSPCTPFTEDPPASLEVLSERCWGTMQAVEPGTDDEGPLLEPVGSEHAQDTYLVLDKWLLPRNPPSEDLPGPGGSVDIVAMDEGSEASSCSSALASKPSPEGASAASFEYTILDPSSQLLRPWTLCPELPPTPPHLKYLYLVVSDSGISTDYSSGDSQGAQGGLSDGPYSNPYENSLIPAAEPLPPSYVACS


How the values were obtained:
[1] = molecular target: T1, soluble human erythropoietin receptor protein (huEpoR) (human); experiment: SPR, Biacore T100; scFv-Fc captured by anti-human IgG Fc on CM5 chip, EpoR as analyte
[2] = molecular target: cynomolgus monkey EpoR (cynoEpoR) (cynomolgus monkey); experiment: as above
[3] = molecular target: T2, human erythropoietin receptor (huEpoR), cell surface expressed (human); experiment: cell-based or functional assay
[4] = molecular target: cynomolgus monkey EpoR (cynoEpoR) (cynomolgus monkey); experiment: SPR, Biacore T100; scFv-Fc captured on CM5 chip, EpoR as analyte; fit to steady-state model (off-rate too rapid); clone #34, cynomolgus EpoR, steady-state fit
[5] = molecular target: cynomolgus monkey EpoR (cynoEpoR) (cynomolgus monkey); experiment: SPR, Biacore T100; scFv-Fc captured on CM5 chip, EpoR as analyte; fit to steady-state model (off-rate too rapid); clone #318, cynomolgus EpoR, steady-state fit

Kd [1] | koff [1] | kon [1] | Kd [2] | koff [2] | kon [2] | Average EC50, UT-7-luciferase assay [3] | Kd [4] | Kd [5] | Binder
108 nM | 0.246 s⁻¹ | 2.28e+06 M⁻¹ s⁻¹ | 1210 nM | 0.361 s⁻¹ | 299000 M⁻¹ s⁻¹ | 0.381 nM |  |  | clone 307 scFv-Fc protein (Fc fusion, part only; not given: scFv linker and IgG1 Fc, not shown: a dimerising Fc or GST) scFv, part: EVQLVESGGGLVQPGGSLRLSCAVSGFTFSKYWMTWVRQAPGKGLEWVANIKPDGSEKYYVESVKGRFTISRDNAKNSVYLQMNSVRAEDTAVYYCARVSRGGSFSDWGQGTMVTVSSQSVLTQPPSASGSPGQSVTISCTGTSSDVGGYNYVSWYQQHPDKAPRLMIYDVNKRPSGVPDRFSGSKSGNTASLTVSGLQAEDEAHYYCNSYAGSNNWVFGGGTQLTVL
163 nM | 0.00296 s⁻¹ | 18000 M⁻¹ s⁻¹ | 539 nM | 0.0221 s⁻¹ | 41000 M⁻¹ s⁻¹ | 0.607 nM |  |  | clone 295 scFv-Fc protein (Fc fusion, part only; not given: scFv linker and IgG1 Fc, not shown: a dimerising Fc or GST) scFv, part: EVQLVESGGGLVQPGGSLRLSCAASGFTFSSYAMSWVRQAPGKGLEWVSGISGSGSSEGGTYYADSVKGRFTLSRDNSKNTLYLQMNSLRAEDTALYYCVKDRPSRYSFGYYFDYWGRGTLVTVSSLPVLTQPPSVSVSPGQTASIACSGNKLGDKYVSWYQQKPGQSPLLVIYQDTKRPSGIPERFSGSNSGNTATLTISGTQAMDEADYYCQAWDSSTDVVFGGGTKLTVL
4030 nM | 0.0187 s⁻¹ | 4600 M⁻¹ s⁻¹ | 18600 nM | 0.0508 s⁻¹ | 2700 M⁻¹ s⁻¹ | 8.28 nM |  |  | clone 201 scFv-Fc protein (Fc fusion, part only; not given: scFv linker and IgG1 Fc, not shown: a dimerising Fc or GST) scFv, part: QVQLQESGSGLARPSQTLSLTCAVSGGSISSSAFSWNWIRQPPGKGLEWIGYIYHTGITDYNPSLKSRVTISVDRSKNQFSLNVNSVTAADTAVYYCARGHGSDPAWFDPWGKGTLVTVSSQSVLTQPPSVSVSPGQTASITCSGDKLGDKYASWYQQRPGQSPVLVIYRDTKRPSGIPERFSGSNSGNTATLTISGTQAVDEADYYCQAWDSTTSLVFGGGTKLTVL
1950 nM | 0.119 s⁻¹ | 61000 M⁻¹ s⁻¹ | 3130 nM | 0.115 s⁻¹ | 37000 M⁻¹ s⁻¹ | 2.8 nM |  |  | clone 15 scFv-Fc protein (Fc fusion, part only; not given: scFv linker and IgG1 Fc, not shown: a dimerising Fc or GST) scFv, part: QVQLQESGPGLVRPSGTLSLTCAVSGGSIGSSNWWSWVRQAPGKGLEWIGEISQSGSTNYNPSLKGRVTISLDRSRNQLSLKLSSVTAADTAVYYCARQLRSIDAFDIWGPGTTVTVSASYVLTQPPSVSVSPGLTATITCSGDKLGDKYASWYQQKPGQSPVLVIYQDRKRPSGIPERFSGSNSGNTATLTISGTQAVDEADYYCQAWDSDTSYVFGTGTQLTVL
45.4 nM | 0.0373 s⁻¹ | 822000 M⁻¹ s⁻¹ | 890 nM | 0.0965 s⁻¹ | 108000 M⁻¹ s⁻¹ | 0.0075 nM |  |  | clone 330 scFv-Fc protein (Fc fusion, part only; not given: scFv linker and IgG1 Fc, not shown: a dimerising Fc or GST) scFv, part: EVQLVESGGGLVQPGGSLRLSCAVSGFTFSKYWMTWVRQAPGKGLEWVANIKPDGSEKYYVESVKGRFTISRDNAKNSVYLQMNSVRAEDTAVYYCARVSRGGSFSDWGQGTLVTVSSQSALTQPPSASGSPGQSVTISCTGTSSDVGAYNYVSWYQQHPGKAPKLMIYEVARRPSGVPDRFSGSKSGNTASLTVSGLQAEDEADYYCSSYAGSNNFAVFGRGTKLTVL
1040 nM | 0.0568 s⁻¹ | 55000 M⁻¹ s⁻¹ | 920 nM | 0.0597 s⁻¹ | 65000 M⁻¹ s⁻¹ | 4.03 nM |  |  | clone 13 scFv-Fc protein (Fc fusion, part only; not given: scFv linker and IgG1 Fc, not shown: a dimerising Fc or GST) scFv, part: QVQLQQSGGGVVQPGRSLRLSCAASGFTFSDYAMHWVRQAPGKGLEWVAVISNHGKSTYYADSVKGRFTISRDNSKHMLYLQMNSLRADDTALYYCARDIALAGDYWGQGTLVTVSADIQMTQSPSSLSASVGDRVTITCRASQSISSYLNWYQQLPGKVPKLLIYGASKLQSGVPSRFSGSGSGTDFTLTISSLQPEDFATYYCLQDYNYPLTFGPGTRLEIK
378 nM | 0.203 s⁻¹ | 536000 M⁻¹ s⁻¹ |  |  |  | 0.11 nM | 5810 nM |  | clone 34 scFv-Fc protein (Fc fusion, part only; not given: Linker and IgG1 Fc, not shown: another chain or arm of the molecule; a dimerising Fc or GST; small tags and cut ends) VH: QVQLQQSGAEVKKPGASVKVSCKASGYTFSGYYMHWVRQAPGQGLEWMGWINPNSGSTNYAQKFLGRVTMTRDTSISTAYMELSSLRSDDTAVYYCARGHSGDYFDYWGQGTLVTVSA VL: EIVLTQSPSSLSASVGDRVTITCRASQSVSSWLAWYQQRPGQAPKLLIYAARLRGGGPSRFSGSGSGTEFTLTISSLQPEDFATYFCQQSYSTPISFGGGTKLEIK
 |  |  |  |  |  | 0.613 nM |  |  | clone 323 scFv-Fc protein (Fc fusion, part only; not given: scFv linker and IgG1 Fc, not shown: a dimerising Fc or GST) scFv, part: QVQLVESGGGLVQPGGSLRLSCAVSGFTFSKYWMTWVRQAPGKGLEWVANIKPDGSEKYYVESVKGRFTISRDNAKNSVYLQMNSVRAEDTAVYYCARVSRGGSFSDWGRGTMVTVSSQSALTQPASVSGSPGQSITISCTGTSSDVGSYNLVSWYQQHPGKVPKLIIYEVSNRPSGVSHRFSGSKSGNTASLTISGLQAEDEADYYCSSLTSSGTWVFGGGTKVTVL
847 nM | 0.558 s⁻¹ | 659000 M⁻¹ s⁻¹ |  |  |  | 0.0154 nM |  | 4890 nM | clone 318 scFv-Fc protein (Fc fusion, part only; not given: scFv linker and IgG1 Fc, not shown: a dimerising Fc or GST) scFv, part: QVQLVESGGGLVQPGGSLRLSCAVSGFTFSKYWMTWVRQAPGKGLEWVANIKPDGSEKYYVESVKGRFTISRDNAKNSVYLQMNSVRAEDTAVYYCARVSRGGSFSDWGQGTLVTVSSQSVLTQPPSASGSPGQSVTISCTGTSSDVGGYNYVSWYQQHPGRAPKLIIYEVSKRPSGVPDRFSGSKSGNTASLTVSGLQADDEADYYCNSYAGSIYVFGSGTKVTVL
212 nM | 0.0335 s⁻¹ | 158000 M⁻¹ s⁻¹ | 121 nM | 0.0258 s⁻¹ | 213000 M⁻¹ s⁻¹ | 5.87 nM |  |  | clone 319 scFv-Fc protein (Fc fusion, part only; not given: Linker and IgG1 Fc, not shown: another chain or arm of the molecule; a dimerising Fc or GST; small tags and cut ends) VH: QVQLVQSGAEIKKPGASVKVSCKTFGSPFSTNDIHWVRQAPGQGLEWMGIIDTSGAMTRYAQKFQGRVTVTRETSTSTVYMELSSLKSEDTAVYYCAREGCTNGVCYDNGFDIWGQGTLVTVSS VL: DIQMTQSPSTLSASIGDRVTITCRASEGIYHWLAWYQQKPGKAPKLLIYKASSLASGAPSRFSGSGSGTDFTLTISSLQPDDFATYYCQQYSNYPLTFGGGTKLEIK
 |  |  |  |  |  | 2.16 nM |  |  | clone 352 scFv-Fc protein (Fc fusion, part only; not given: scFv linker and IgG1 Fc, not shown: a dimerising Fc or GST) scFv, part: EVQLVQSGGGLVQPGGSLRLSCAASGFRFSSYWMTWVRQAPGKGLEWVANIKPDGSEKYYVDSVKGRFTMSRDNAKNSVYLQMNSLRAEDTAVYYCARVSRGGSFSDWGQGTLVTVSSQSALTQPASVSGSPGQSITIPCTGTSSDIGTYDYVSWYQQHPGKVPKVIIYEVTNRPSGVSNRFSGSKSGNTASLTISGLQADDEADYYCNSFTKNNTWVFGGGTKLTVL
 |  |  |  |  |  | 0.322 nM |  |  | clone 276 scFv-Fc protein (Fc fusion, part only; not given: scFv linker and IgG1 Fc, not shown: a dimerising Fc or GST) scFv, part: EVQLVQSGGGLVQPGGSLRLSCAASGFTFSSYWMSWVRQAPGKGLEWVANIKPDGSEKYYVDSVKGRFTISRDNAKNSVYLQMNSLRAEDTAVYYCARVSRGGSYSDWGRGTMVTVSSQSVLTQPPSASGSPGQSVTISCTGTSSDVGGFNYVSWYQKYPGKAPKLVIYEVSKRPSGVPDRFSGSKSGNTASLTVSGLQAEDEADYYCSSWAPGKNLFGGGTKLTVL
 |  |  |  |  |  | 0.055 nM |  |  | clone 378 scFv-Fc protein (Fc fusion, part only; not given: scFv linker and IgG1 Fc, not shown: a dimerising Fc or GST) scFv, part: QVQLVESGGGLVQPGRSLILSCAVSGFTFSKYWMTWVRQAPGKGLEWVANIKPDGSEKYYVESVKGRFTISRDNAKNSVYLQMNSVRAEDTAVYYCARVSRGGSFSDWSQGTLVTVSSQSALTQPPSASGSPGQSVTISCTGTSGDVGAYNYVSWYQQYPGKAPKLMIYEVSKRPSGVPDRFSGSKSGNTASLTVSGLQAEDEADYYCNSYRGSNGPWVFGGGTKVTVL
2190 nM | 0.142 s⁻¹ | 65000 M⁻¹ s⁻¹ | 4360 nM | 0.283 s⁻¹ | 65000 M⁻¹ s⁻¹ |  |  |  | clone 16 scFv-Fc protein (Fc fusion, part only; not given: scFv linker and IgG1 Fc, not shown: a dimerising Fc or GST) scFv, part: QVQLQESGPGLVKPSETLSLTCTVSGGYINNYYWSWIRQPPGKGLEWIGYIHYSGSTYYNPSLKSRVTISEDTSKNQFSLKLSSATAADTAVYYCARVGYYYDSSGYNLAWYFDLWGRGTLVTVSASSELTQDPAVSVALGQTVRITCQGDNLRSYSATWYQQKPGQAPVLVLFGENNRPSGIPDRFSGSKSGDTAVLTITGTQTQDEADYYCTSRVNSGNHLGVFGPGTQLTVL
